{"source": "patent US12679878B2", "about": "“CRF2 receptor agonists and their use in therapy” (SANOFI, priority 2020, dated 2026)", "binders": {"B1": {"name": "peptide of SEQ ID NO: 106 (peptide)", "peptide": "IVLSLDVPIKLK([AEEA-AEEA-γGlu-C18 diacid])QILLEQERQK[Aib]QREQAETNKQILERV-NH2", "modifications": "N-terminus assumed", "SMILES": "CC[C@H](C)[C@H](N)C(=O)N[C@H](C(=O)N[C@@H](CC(C)C)C(=O)N[C@@H](CO)C(=O)N[C@@H](CC(C)C)C(=O)N[C@@H](CC(=O)O)C(=O)N[C@H](C(=O)N1CCC[C@H]1C(=O)N[C@H](C(=O)N[C@@H](CCCCN)C(=O)N[C@@H](CC(C)C)C(=O)N[C@@H](CCCCNC(=O)COCCOCCNC(=O)COCCOCCNC(=O)CC[C@H](NC(=O)CCCCCCCCCCCCCCCCC(=O)O)C(=O)O)C(=O)N[C@@H](CCC(N)=O)C(=O)N[C@H](C(=O)N[C@@H](CC(C)C)C(=O)N[C@@H](CC(C)C)C(=O)N[C@@H](CCC(=O)O)C(=O)N[C@@H](CCC(N)=O)C(=O)N[C@@H](CCC(=O)O)C(=O)N[C@@H](CCCNC(=N)N)C(=O)N[C@@H](CCC(N)=O)C(=O)N[C@@H](CCCCN)C(=O)NC(C)(C)C(=O)N[C@@H](CCC(N)=O)C(=O)N[C@@H](CCCNC(=N)N)C(=O)N[C@@H](CCC(=O)O)C(=O)N[C@@H](CCC(N)=O)C(=O)N[C@@H](C)C(=O)N[C@@H](CCC(=O)O)C(=O)N[C@H](C(=O)N[C@@H](CC(N)=O)C(=O)N[C@@H](CCCCN)C(=O)N[C@@H](CCC(N)=O)C(=O)N[C@H](C(=O)N[C@@H](CC(C)C)C(=O)N[C@@H](CCC(=O)O)C(=O)N[C@@H](CCCNC(=N)N)C(=O)N[C@H](C(N)=O)C(C)C)[C@@H](C)CC)[C@@H](C)O)[C@@H](C)CC)[C@@H](C)CC)C(C)C)C(C)C"}, "B2": {"name": "peptide of SEQ ID NO: 105 (peptide)", "peptide": "IVLSLDVPIKLK([AEEA-AEEA-γGlu-C18 diacid])QILLEQERQK[Aib]QRQQAETNKQILAQV-NH2", "modifications": "N-terminus assumed", "SMILES": "CC[C@H](C)[C@H](N)C(=O)N[C@H](C(=O)N[C@@H](CC(C)C)C(=O)N[C@@H](CO)C(=O)N[C@@H](CC(C)C)C(=O)N[C@@H](CC(=O)O)C(=O)N[C@H](C(=O)N1CCC[C@H]1C(=O)N[C@H](C(=O)N[C@@H](CCCCN)C(=O)N[C@@H](CC(C)C)C(=O)N[C@@H](CCCCNC(=O)COCCOCCNC(=O)COCCOCCNC(=O)CC[C@H](NC(=O)CCCCCCCCCCCCCCCCC(=O)O)C(=O)O)C(=O)N[C@@H](CCC(N)=O)C(=O)N[C@H](C(=O)N[C@@H](CC(C)C)C(=O)N[C@@H](CC(C)C)C(=O)N[C@@H](CCC(=O)O)C(=O)N[C@@H](CCC(N)=O)C(=O)N[C@@H](CCC(=O)O)C(=O)N[C@@H](CCCNC(=N)N)C(=O)N[C@@H](CCC(N)=O)C(=O)N[C@@H](CCCCN)C(=O)NC(C)(C)C(=O)N[C@@H](CCC(N)=O)C(=O)N[C@@H](CCCNC(=N)N)C(=O)N[C@@H](CCC(N)=O)C(=O)N[C@@H](CCC(N)=O)C(=O)N[C@@H](C)C(=O)N[C@@H](CCC(=O)O)C(=O)N[C@H](C(=O)N[C@@H](CC(N)=O)C(=O)N[C@@H](CCCCN)C(=O)N[C@@H](CCC(N)=O)C(=O)N[C@H](C(=O)N[C@@H](CC(C)C)C(=O)N[C@@H](C)C(=O)N[C@@H](CCC(N)=O)C(=O)N[C@H](C(N)=O)C(C)C)[C@@H](C)CC)[C@@H](C)O)[C@@H](C)CC)[C@@H](C)CC)C(C)C)C(C)C"}, "B3": {"name": "peptide of SEQ ID NO: 104 (peptide)", "peptide": "IVLSLDVPIKLK([AEEA-AEEA-γGlu-C18 diacid])QILLKQERQK[Aib]QREQAETNKQILAQV-NH2", "modifications": "N-terminus assumed", "SMILES": "CC[C@H](C)[C@H](N)C(=O)N[C@H](C(=O)N[C@@H](CC(C)C)C(=O)N[C@@H](CO)C(=O)N[C@@H](CC(C)C)C(=O)N[C@@H](CC(=O)O)C(=O)N[C@H](C(=O)N1CCC[C@H]1C(=O)N[C@H](C(=O)N[C@@H](CCCCN)C(=O)N[C@@H](CC(C)C)C(=O)N[C@@H](CCCCNC(=O)COCCOCCNC(=O)COCCOCCNC(=O)CC[C@H](NC(=O)CCCCCCCCCCCCCCCCC(=O)O)C(=O)O)C(=O)N[C@@H](CCC(N)=O)C(=O)N[C@H](C(=O)N[C@@H](CC(C)C)C(=O)N[C@@H](CC(C)C)C(=O)N[C@@H](CCCCN)C(=O)N[C@@H](CCC(N)=O)C(=O)N[C@@H](CCC(=O)O)C(=O)N[C@@H](CCCNC(=N)N)C(=O)N[C@@H](CCC(N)=O)C(=O)N[C@@H](CCCCN)C(=O)NC(C)(C)C(=O)N[C@@H](CCC(N)=O)C(=O)N[C@@H](CCCNC(=N)N)C(=O)N[C@@H](CCC(=O)O)C(=O)N[C@@H](CCC(N)=O)C(=O)N[C@@H](C)C(=O)N[C@@H](CCC(=O)O)C(=O)N[C@H](C(=O)N[C@@H](CC(N)=O)C(=O)N[C@@H](CCCCN)C(=O)N[C@@H](CCC(N)=O)C(=O)N[C@H](C(=O)N[C@@H](CC(C)C)C(=O)N[C@@H](C)C(=O)N[C@@H](CCC(N)=O)C(=O)N[C@H](C(N)=O)C(C)C)[C@@H](C)CC)[C@@H](C)O)[C@@H](C)CC)[C@@H](C)CC)C(C)C)C(C)C"}, "B4": {"name": "peptide of SEQ ID NO: 108 (peptide)", "peptide": "IVLSLDVPIKLK([AEEA-AEEA-γGlu-C18 diacid])QILLKQERQK[Aib]QRQKAETNKQILAQV-NH2", "modifications": "N-terminus assumed", "SMILES": "CC[C@H](C)[C@H](N)C(=O)N[C@H](C(=O)N[C@@H](CC(C)C)C(=O)N[C@@H](CO)C(=O)N[C@@H](CC(C)C)C(=O)N[C@@H](CC(=O)O)C(=O)N[C@H](C(=O)N1CCC[C@H]1C(=O)N[C@H](C(=O)N[C@@H](CCCCN)C(=O)N[C@@H](CC(C)C)C(=O)N[C@@H](CCCCNC(=O)COCCOCCNC(=O)COCCOCCNC(=O)CC[C@H](NC(=O)CCCCCCCCCCCCCCCCC(=O)O)C(=O)O)C(=O)N[C@@H](CCC(N)=O)C(=O)N[C@H](C(=O)N[C@@H](CC(C)C)C(=O)N[C@@H](CC(C)C)C(=O)N[C@@H](CCCCN)C(=O)N[C@@H](CCC(N)=O)C(=O)N[C@@H](CCC(=O)O)C(=O)N[C@@H](CCCNC(=N)N)C(=O)N[C@@H](CCC(N)=O)C(=O)N[C@@H](CCCCN)C(=O)NC(C)(C)C(=O)N[C@@H](CCC(N)=O)C(=O)N[C@@H](CCCNC(=N)N)C(=O)N[C@@H](CCC(N)=O)C(=O)N[C@@H](CCCCN)C(=O)N[C@@H](C)C(=O)N[C@@H](CCC(=O)O)C(=O)N[C@H](C(=O)N[C@@H](CC(N)=O)C(=O)N[C@@H](CCCCN)C(=O)N[C@@H](CCC(N)=O)C(=O)N[C@H](C(=O)N[C@@H](CC(C)C)C(=O)N[C@@H](C)C(=O)N[C@@H](CCC(N)=O)C(=O)N[C@H](C(N)=O)C(C)C)[C@@H](C)CC)[C@@H](C)O)[C@@H](C)CC)[C@@H](C)CC)C(C)C)C(C)C"}}, "biological_target": "T1, CRF1R receptor (anti-target) (UniProt P34998 24-415, limits assumed)", "T1 sequence (looked up)": "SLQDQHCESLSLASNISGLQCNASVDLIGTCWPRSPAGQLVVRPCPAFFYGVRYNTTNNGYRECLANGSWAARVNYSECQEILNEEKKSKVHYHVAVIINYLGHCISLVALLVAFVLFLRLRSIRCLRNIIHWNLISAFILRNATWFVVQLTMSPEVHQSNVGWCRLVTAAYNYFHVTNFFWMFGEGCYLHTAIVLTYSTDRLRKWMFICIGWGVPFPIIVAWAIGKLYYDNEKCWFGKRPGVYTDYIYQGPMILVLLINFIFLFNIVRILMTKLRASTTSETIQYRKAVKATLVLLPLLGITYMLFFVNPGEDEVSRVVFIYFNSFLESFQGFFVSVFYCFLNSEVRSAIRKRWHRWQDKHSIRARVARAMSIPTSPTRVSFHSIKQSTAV", "assay": "cell-based or functional assay", "note": "Starred links: 1 amine or outer side, 2 acyl side, 3 side chain; linkers in the order of their positions; H or OH if unused. Non-standard residues stand in square brackets, D forms with d. Groups on a side chain read outwards from the residue. No end group written: not given here. *: point of attachment. C18 diacid = O=C(O)CCCCCCCCCCCCCCCCC(=O)*; γGlu = O=C(O)[C@H](CCC(=O)[*:2])N[*:1]; AEEA = NCCOCCOCC(=O)O; Aib = CC(C)(N)C(=O)O", "data": [{"binder": "B1", "values": [{"measurement": "EC50 [nM] 0% HSA (cAMP, HTRF)", "result": "> 100", "unit": "nM"}, {"measurement": "Emax (%) (100% = Sauvagine at 100 nM)", "result": 5.1, "unit": "%"}]}, {"binder": "B2", "values": [{"measurement": "EC50 [nM] 0% HSA (cAMP, HTRF)", "result": "> 100", "unit": "nM"}, {"measurement": "Emax (%) (100% = Sauvagine at 100 nM)", "result": 15.4, "unit": "%"}]}, {"binder": "B3", "values": [{"measurement": "EC50 [nM] 0% HSA (cAMP, HTRF)", "result": "> 100", "unit": "nM"}, {"measurement": "Emax (%) (100% = Sauvagine at 100 nM)", "result": 3.7, "unit": "%"}]}, {"binder": "B4", "values": [{"measurement": "EC50 [nM] 0% HSA (cAMP, HTRF)", "result": "> 100", "unit": "nM"}, {"measurement": "Emax (%) (100% = Sauvagine at 100 nM)", "result": -2, "unit": "%"}]}]}
